Data published in the supplement of paper PMC10567573.

B1: INTS3 (parent)
chain: YPPLEGHVRQGVFSSLNHIVEKRV
B2: MIA2 (parent)
chain: NSISSDKEATVPCTEILTEKKDTI

Variants of: B1
Test: protein stability index of a GFP-peptide fusion (GPS, HEK-293T) (PSI 1-6); higher = more stable
Conditions: c terminus: a fixed tail appended
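Note: lentivirally expressed fusions sorted by FACS into six bins by GFP to DsRed ratio, PSI derived from sequencing read proportions per bin multiplied by bin number.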

Protein stability index, by site and new letter:
Y1: P 3.94, A 4.01, R 4.09, C 3.94, E 3.96, F 2.88, K 4.07, S 3.78, G 3.43
G11: I 1.87, S 2.54, L 1.85, F 1.8, Q 2.35, C 1.48, R 2.18, D 2.59, K 2.93, H 2.29
L16: C 2.24, N 3.3, P 2.93, F 2.14, I 2.31, K 3.35, Y 2.22, D 4.2, H 2.94
V8: N 2.55, E 3.53, A 2.46, H 2.48, P 2.31, T 3
Q10: C 2.73, D 3.18, A 2.19, R 2.26, H 2.69, V 2.28, T 1.83, P 2.3, S 3.33, Y 1.99
V20: P 2.64, W 2.02, H 2.36, F 2.78, E 3.08, A 2.7, T 2.48, M 2.7, N 2.34, G 1.76, C 2, K 2.43
G6: E 3.51, F 2.2, R 2.3, V 2.07, D 2.81, C 2.39, H 2.98, Q 2.74, A 2.38
I19: A 3.17, D 3.11, S 2.53, Y 2.07, Q 2.52
L4: V 3.04, I 2.74, M 2.45, H 3.01, E 1.08, R 2.32, K 2.64, T 1.79, N 2.19
E21: W 1.95, N 2.21, M 2.75, T 2.54, I 1.74, A 2.23, S 2.05, K 2.26, R 2.45, H 2.86, F 2.72, G 2.68
P3: G 2.9, L 2.98, S 3.19, V 2.65, K 3.04, D 3.11, Q 2.87, A 2.43, C 2.78, F 2.29
S15: F 2.32, M 2.43, A 2.23, P 1.54, L 1.86, I 1.64, V 2.92, N 2.4
V12: P 3.19, K 3.63, I 2.37, H 2.53, R 3.5, C 2.21, G 2.54, T 3.27, Y 2.54, M 2.36, A 2.58, D 3.44
R9: H 2.96, K 2.94, S 2.51, V 3.14, A 3.24, D 3.42, C 2.06
N17: F 1.78, E 2.63, V 1.99, K 2.28, L 2.46, M 1.64, W 2.26, H 2.21, D 3.07, T 2.04, I 1.86
R23: C 2.22, L 1.98, D 2.83, Y 2.48, F 1.81, W 2.62, P 2.39, A 2.19, Q 2.83, N 2.6
E5: I 1.73, H 2.24
H18: S 2.65, E 2.91, K 2.86, M 3.03, C 2.01, D 3.39, T 2.16
F13: N 3.46, Y 2.84, T 2.98, H 4.25, K 3.16, W 2.4, L 3.77
H7: G 2.3, Q 2.36, P 2.01, N 3.13, R 2.22, F 2.42, L 2.2, K 2.21
S14: Y 1.66, Q 3.01, F 1.79, V 2.29, G 2.61, K 2.6, L 1.73, D 3.52, H 2.63, E 2.73, A 2.75, C 1.5
K22: L 2.33, N 2.46, A 2.29, C 1.43, R 2.75, T 2.23, H 2.65, Q 2.23, W 2.14, D 2.2, M 1.73
P2: Q 2.02, F 2.71, A 2.18, I 1.55, M 2.1, G 2.85, S 1.97, Y 2.6, D 3.36, L 2.7
V24: M 2.06, A 3.31, G 3.08, R 2.9, E 3.32, I 2.69, Y 1.95, H 2.29, T 2.09

Variants of: B2
Test: as above
Conditions: c terminus: a fixed tail appended

Protein stability index, by site and new letter:
P12: V 5.35, W 4.58, G 5.53
K20: I 5.15, L 4.94, Q 5.39, H 5.42, T 5.48, W 4.54, E 5.53
K21: R 5.39, P 5.36, F 5.07, S 5.37, D 5.72, V 5.1, W 4.59, Q 5, A 5.37
E8: K 5.46, D 5.5, Q 5.52, I 5.32, R 5.74
L17: C 5.51, I 5.34, E 5.78, D 5.46
T18: L 5.11, I 5.19, F 5.48
T10: Y 4.63, N 5.6, K 5.24, P 5.32, Q 5.48
T23: V 5.32, A 5.55
C13: P 5.35, W 5.06, H 5.15, Y 5.01, E 5.57, V 5.58, F 5.28
T14: L 4.99, E 5.49, D 5.88, I 5.21
E15: R 4.9, I 4.25, H 5.04, A 5.24
K7: A 5.07, Q 5.25, N 5.51, D 5.4, T 5.49, H 5.38, P 5.62
S5: N 5.69, G 5.42, Q 5.43, F 4.94, I 5.17, K 5.83, P 5.59
I16: M 5.49
A9: Q 5.25, I 5.3, T 5.38
V11: R 5.28, H 4.62, L 5.41, K 5.59, T 5.67, E 5.52
I24: S 5.69, N 5.7, R 5.36, T 5.67, H 5.45, G 5.56, F 5.33
I3: D 5.44, R 5.7, N 5.7, H 5.43, W 5.52, K 5.71, E 5.51
S2: T 5.1, N 5.66, Q 5.33, K 5.19
S4: W 5.11, K 5.29, N 5.18
N1: M 5.33, H 5.44, Q 5.44, F 4.77, G 5.24, W 4.89, E 5.73
E19: R 5.42, C 5.21, L 4.43
D22: H 4.94, N 5.21, P 5.43, K 5.16, Q 5.11, L 4.57
D6: C 4.52, E 5.63, Q 5.12, W 4.62, G 5.28
